PMC5052687, “The structural basis for CD36 binding by the malaria parasite” (Nature Communications, 2016)
Numbering of substitutions follows the chain as printed. Names may count otherwise.

Experiments:
Details in all cases: both partners purified
[1] = target: T1, human CD36 ectodomain (residues 35-439), C-terminal 8xHis and biotinylated BAP tag (human, UniProt P16671 35-439, biotin on the BAP tag (in vitro, BirA ligase)); assay: SPR; biotinylated CD36 (wild type or F153A) immobilised on a CAPture chip to ~700 RU; CIDRα domains as analytes, two-fold dilutions from 400 nM (Supplementary Figure 10: 400 nM only), 240 s injection, 300 s dissociation; 25 °C, 20 mM HEPES pH 7.5, 0.15 M NaCl, 0.005% Tween20; affinities from equilibrium binding, one site-binding model
T1 construct: CD36, human, ectodomain residues 35-439; Construct for SPR; vector pHLsec-8H; also called CD36 wild-type; w.t; source: HEK293T, purified (TALON, size-exclusion chromatography), biotinylated in vitro with BirA; not shown: BAP tag, C-terminal, kept
T1 sequence (P16671 35-439): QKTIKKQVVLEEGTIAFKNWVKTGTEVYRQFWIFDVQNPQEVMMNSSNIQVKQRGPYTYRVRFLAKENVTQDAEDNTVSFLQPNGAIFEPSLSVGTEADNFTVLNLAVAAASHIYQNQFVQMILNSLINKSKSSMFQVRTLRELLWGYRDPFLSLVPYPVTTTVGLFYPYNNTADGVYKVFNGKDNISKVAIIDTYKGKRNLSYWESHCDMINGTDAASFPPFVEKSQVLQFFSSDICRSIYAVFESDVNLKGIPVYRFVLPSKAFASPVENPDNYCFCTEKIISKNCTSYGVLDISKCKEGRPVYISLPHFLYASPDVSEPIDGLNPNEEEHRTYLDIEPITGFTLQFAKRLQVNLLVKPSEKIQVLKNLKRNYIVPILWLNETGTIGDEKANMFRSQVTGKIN

[2] = target: T1, human CD36 ectodomain (residues …); assay: as above; remark: listed apart in the source
[3] = target: T2, human CD36 ectodomain (residues 35-439) (human, UniProt P16671 35-439); assay: SEC-MALS; coexpressed and purified CD36:MCvar1 CIDRα2.8 complex at 1 mg/ml, Superdex S200 10/300 GL, 10 mM HEPES pH 7.5, 0.15 M NaCl
T2 construct: CD36, human, ectodomain residues 35-439; Cloned into pHLsec-8H (secretion vector); For crystallisation the complex was deglycosylated (endoglycosidase F1) and treated with carboxypeptidase Y in situ
T2 sequence (P16671 35-439): as above

B1: IT4var61 CIDRα2.7 domain (domain or fragment)
chain: PWCGVKRNGGGWKAKSDGECAKEKKTYKKKNITEIPVLTPDKEKHNILQKYENFCKNSDGNNGDQIKNWQCYYEEKDESDNDGDSNICVLQNENIGKKEEKSMPYHPFFWKWVTEMLIDSMYWRKELKRCINKETKACKNGCKNNCDCYKRWVEEKKKEWGQIKTHFNTQEDMREDIGENTDPGIILAALLNIEDLFENIKDTYGDVKEIKDINQMLEKENEENEGTAGADSKKKNTIDLMINHEQKDAQKCVTNNPDKDC
notes: CIDRα2.7 domain of the PfEMP1 IT4var61, Plasmodium falciparum; also called CIDRα2.7 IT4var61; IT4var61 (α2.7)
Kd [1]: 72 nM

B2: IT4var30 CIDRα2.10 domain (domain or fragment)
chain: PWCGIEEQKVDGKWKAKNNGECAKVENKIYDPKKTTTIEILTGDNEKFGIYEKYNKFCANGKNGVTSGAPDTAPGKNGNQIVTWQCYYDKKKRSGQNNDNCVEGTWEKFTGKQTVKSYNVFFWDWVYHMLHDSLEWRERLNSCINNAKSQNCKNNKCNRECGCFAKWVVKKKDEWDKIKDHFNKQENIGQNVGFIEFNHYGVLEGVLDKDELLKNIKDTHADAKDIERIDKMLQQAGVVGGGRGGENNTIIDKFLQEEERFAKDCQQKQEEC
notes: CIDRα2.10 domain of the PfEMP1 IT4var30, Plasmodium falciparum; also called CIDRα2.10 IT4var30; IT4var30 (α2.10)
Kd [1]: 55 nM

B3: IT4var15 CIDRα3.5 domain (domain or fragment)
chain: PGCGVELIGNEWKEKNKGECKGGKRYNIPKGTKHNVIPVLSFGDEHKEIIEKIEQFCAESNSDSSKLTEQWKCYYGDKEYEVCTLENRNKSEEDPEEIQKTFHNFFYFWIRHLLNDSIEWRDKINNCIEKAKEGKCKNECKTDCGCFQRWIGKKKEEWGEIKKHFKTQDGFSIFGNNYDFVLENVLNIDELFQDITEAYGNSQKIQGIKDTLAKKKTQAADDATEQKNTIDLLFEYDSEEAEKCKKIQEEC
notes: CIDRα3.5 domain of the PfEMP1 IT4var15, Plasmodium falciparum; also called CIDRα3.5 IT4var15; IT4var15 (α3.5)
Kd [1]: 3 nM

B4: HB3var13 CIDRα3.2 domain (domain or fragment)
chain: PLCGVKKEKGTWVRKDSMNDCPRIKLYKPINDKVGTPINFLYSGDGQTEIAEKLKKFCRTENGSDGSSSARANGASGDKNGGSGSQELYQYWKCYQIGDLQKVREGEDDEDDGQYDQEVENAGGLCILQKTNGKENVNKQKTSHEIQKTFNPFFYYWVVHMLKDSIHWRTEKIKSCINNTNELKACKNNKKCNSDCDCFKRWVKQKGKEWGQIKVHFKTQDIRGKVVNGNTVVSFFLDHDELLEGVLDKGLLLESLQEAYGNAEDIKHIKKLLQETDVVGGGEHKTTIDFLLKEELNEAEECLKKQKDNEC
notes: CIDRα3.2 domain of the PfEMP1 HB3var13, Plasmodium falciparum; also called CIDRα3.2 HB3var13; HB3var13 (α3.2)
Kd [1]: 12.3 nM

B5: MCvar1 PfEMP1 CIDRα2.8 domain (residues 576-745, C626S) (domain or fragment)
chain: EDKIMSYNAFFWMWVHDMLIDSIKWRDEHGRCINKDKGKTCIKGCNKKCISFQKWVEQKKTEWGKIKDHFRKQKDIPKDWTHDDFLQTLLMKDLLLEIIQDTYGDANEIKRIEALLEQAGVGGIDFAALAGLYTKGFVAEKDTTIDKLLQHEQKEADKCLKTHTDDTCPP
notes: CIDRα2.8 domain of the MCvar1 PfEMP1, Plasmodium falciparum; the reverse cloning primer (D1:p11) ends at ...DTCPP; also called MCvar1 CIDRα2.8; MC179 CIDRα2.8; source: HEK293, secreted, purified (TALON, size-exclusion chromatography); for the crystal co-expressed with CD36 in the presence of kifunensine
Kd [2]: 12 nM

B6: MCvar1 PfEMP1 CIDRα2.8 domain (residues 576-745, C626S) (domain or fragment)
chain: B5 chain
notes: PfEMP1 MCvar1, Plasmodium falciparum, CIDRα2.8 domain, residues 576-745; Synthetic codon-optimised cDNA (GeneArt) cloned into pHLsec-8H; also called MCvar1 CIDRα2.8; source: HEK293 cells, secreted, purified (TALON, size-exclusion chromatography); coexpressed with CD36 with kifunensine for the structure and SEC-MALS, expressed individually for SPR
stoichiometry N [3]: 1

B7: MCvar1 CIDRα2.8 domain (residues 576-745, C626S) Q648A (domain or fragment)
chain: B5 chain with Q73A
notes: CIDRα2.8 domain of the MCvar1 PfEMP1, Plasmodium falciparum; source: HEK293, secreted, purified (TALON, size-exclusion chromatography)
Kd [2]: 362 nM

B8: MCvar1 CIDRα2.8 domain (residues 576-745, C626S) F660N:Q662T (domain or fragment)
chain: B5 chain with F85N, Q87T
modifications: N-linked glycan at the introduced site on a small fraction of the protein
notes: CIDRα2.8 domain of the MCvar1 PfEMP1, Plasmodium falciparum; Introduces an N-linked glycosylation site into site 1 of the crystal; also called site 1 mutant; site 1; source: HEK293, secreted, purified (TALON, size-exclusion chromatography)
Kd [2]: 306 nM

B9: MCvar1 CIDRα2.8 domain (residues 576-745, C626S) D680N:N682T (domain or fragment)
chain: B5 chain with D105N, N107T
modifications: N-linked glycan at the introduced site on the majority of the protein
notes: CIDRα2.8 domain of the MCvar1 PfEMP1, Plasmodium falciparum; Introduces an N-linked glycosylation site into site 2 of the crystal; also called site 2 mutant; site 2; source: HEK293, secreted, purified (TALON, size-exclusion chromatography)
Kd [2]: 18 nM

B10: MCvar1 CIDRα2.8 domain (residues 576-745, C626S) E672A (domain or fragment)
chain: B5 chain with E97A
notes: as for B7
Kd [2]: 86 nM

B11: IT4var33 CIDRα2.4 domain (domain or fragment)
chain: PLCGLGMQEPPWNPKKDTDCEDRGIKTFDDRNSTPINLLVKDVTGTSIVEKLGGLCGNGAKKNIQTWKCRFESSQNYYCVLQNDKKNTPQQEIESFNSLFWHWITEMLKDSIDWRKEHENCINNNNTCKKGCKSKCECFEKWVKRMKEEWKQVLEVYDKQPDFKEVFTPYFTLGYLLKEYFTKIKAPYEEVESVQEFIKEMEQIIDENSNNINATKENNSITKFLQHEEGIATECKKTHNEEKC
notes: CIDRα2.4 domain of the PfEMP1 IT4var33, Plasmodium falciparum; also called CIDRα2.4 IT4var33; IT4var33 (α2.4)
Kd [1]: 3.3 nM

B12: IT4var12 CIDRα6 domain (domain or fragment)
chain: PWCGLKKQADGTWKRLYENDPQCPIKPKYEPPKGEEPTEIDVLYTGKENKDIIVKLREFCKTDGNTGFKNEEWNCYYQVGNDKCVLENGEELGGEKKVKDYDNFLMFWVAHMLKDSIEWRSKLSNCLKSDKKTCIKKCNDNCKCYEKWIGKKKVEWTQIKKHFDKQTDFQGWGRYFVLETVLEGDQFFTDITKAYGDAREIVHIQEMLQKKKEQVLHEDASNMKTIIDELLDHELKEAKQCIVNHKDNNC
notes: CIDRα6 domain of the PfEMP1 IT4var12, Plasmodium falciparum; also called CIDRα6 IT4var12; IT4var12 (α6)
Kd [1]: 6.6 nM

B13: IT4var14 CIDRα5 domain (domain or fragment)
chain: PWCGIEEQKDGKWKRINDHSACKEEELYTPKENAKYTKINVLTSGEGHEDIAKRLKEFCTKTQNGGGGSDDCGGNSDSSLCEPWQCYQPDQLEKVGGGEVDDKLKGAGGLCIFEKMKGEKKVKKQKTFNNFFNFWVAHVLKDSIDWRTQLTKCLSEDKLKKCEKGCKSNCECFKKWIEKKEKEWIKVKDQFNKQTDFLEWKHYLVLETILENYYFENIQKAYGDLKSIQEMKKMIKENKQNKNRTKDDEDALDVLFDHEKEEAEDCLDIHE
notes: CIDRα5 domain of the PfEMP1 IT4var14, Plasmodium falciparum; also called CIDRα5 IT4var14; IT4var14 (α5)
Kd [1]: 180 nM

B14: MAL6P1.252 CIDRα2.1 domain (domain or fragment)
chain: PWCGVKPGGPPWKDNDIDSCGKKEISFSDKDTTDISILSTDRAKKNILQKLENFCRDTEHINHDIWKCHYENTDNDNCILQNENTGSEKQKIMPFDAFFFLWLTQMLDDSIEWRKKLKTCINNEKPTNCIRGCKKPCECFERWVEQKEEEWISIEKHFDKQRDISEEERYITLEYILNEFFMDKIEKAYGIEKSKELKEKLKSNKGHGIIRDTEHSQDAIKILLEHELEDAKKCTETHNDEKC
notes: CIDRα2.1 domain of the PfEMP1 MAL6P1.252, Plasmodium falciparum; also called CIDRα2.1 MAL6P1.252
Kd [1]: 3.6 nM

B15: IT4var45 CIDRα2.9 domain (domain or fragment)
chain: PWCGVNGTKGNWTPKNDDDCKPGNEYKNYENTQIPILTGDKTKSEIVERYRKFCKNNGKNGANGREGGVGGSENGAASNSDNATTGYCGTNNNDKDPSLCEKWTCYYKKKEKNDGKKAINFCVLQDDKVGKSQEKSMHYNSFFWDWVYHMLHDSLDWRKQLGRCINKKEETKCIGSCNKKCECFAKWVGHKQQEWEQIKKHFLKQDDIGQETNCDPMVTLEILLDIDELLKNIKDTHANADDIDRIQNMLQQAGFDGGVAALVGRCTEGFVAEKDTTIDKFLEKELQEAEKCLETHKEKC
notes: CIDRα2.9 domain of the PfEMP1 IT4var45, Plasmodium falciparum; also called CIDRα2.9 IT4var45; IT4var45 (α2.9)
Kd [1]: 23 nM

B16: IT4var24 CIDRα2.2 domain (domain or fragment)
chain: PLCGVNGPKGNWTDIEDKECTLVEKKKYDSNNTTNIDILTADKSQKNILQKYNKFCKNGANDEKSATPTANGGGQIKNWQCYYDESKESGQNNNCILGKWEDFTGNEDVTSYNVFFYNSIIEMLNDSIEWKDKLNICINNKTGKCRKVCKNPCECYKRWIEKKKTELEKIKDHFRKQKDIGDAAQREMTLNITLNNNFLNDIKDAYPVKQQLQKIEERLKDKMQEDFIFERTKTSIDKFLQEEEQFAEKCIEKHKC
notes: CIDRα2.2 domain of the PfEMP1 IT4var24, Plasmodium falciparum; also called CIDRα2.2 IT4var24; IT4var24 (α2.2)
Kd [1]: 15.8 nM
